# The supplement of paper PMC10567573
# B1: KRT71 (parent)
# chain: FGSRSLYSLGGVRSLNVASGSGKS
# B2: ZNF511 (parent)
# chain: EPLPVERDPAAGAAPFRFVARPVR
# Variants of: B1
# Assay: protein stability index of a GFP-peptide fusion (GPS, HEK-293T) (PSI 1-6); higher = more stable
# Settings: c terminus: a fixed tail appended
# 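Further: lentivirally expressed fusions sorted by FACS into six bins by GFP to DsRed ratio, PSI derived from sequencing read proportions per bin multiplied by bin number.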
row,Variant,protein stability index
1,FGSRSLYSLGGVRSLNVASGSGKM,1.62
2,FGSRSLYSLGGVVSLNVASGSGKS,1.74
3,FGSRSLYSLGGVKSLNVASGSGKS,1.34
4,FGSRSLYSLGGVASLNVASGSGKS,3.09
5,FGSRSLYSWGGVRSLNVASGSGKS,1.87
6,FGSRSLYSHGGVRSLNVASGSGKS,2.75
7,FGSRSLYSFGGVRSLNVASGSGKS,1.88
8,FGSRSLYSDGGVRSLNVASGSGKS,2.56
9,FGSRSLYSRGGVRSLNVASGSGKS,2.56
10,FWSRSLYSLGGVRSLNVASGSGKS,1.8
11,FYSRSLYSLGGVRSLNVASGSGKS,2.08
12,FNSRSLYSLGGVRSLNVASGSGKS,2.58
13,FLSRSLYSLGGVRSLNVASGSGKS,2.45
14,FTSRSLYSLGGVRSLNVASGSGKS,1.32
15,FGSRSLYSLGYVRSLNVASGSGKS,3.77
16,FGSRSLYSLGLVRSLNVASGSGKS,2.9
17,FGSRSLYSLGGVRSLLVASGSGKS,1.73
18,FGSRSLYSLGGVRSLRVASGSGKS,2.07
19,FGSRSLYSLGGVRSLIVASGSGKS,1.29
20,FGSRMLYSLGGVRSLNVASGSGKS,1.62
21,FGSRQLYSLGGVRSLNVASGSGKS,2.16
22,FGSRSLYSLGGVRSLNVASGSYKS,2.44
23,FGSRSLYSLGGVRSLNVASGSCKS,1.69
24,FGSRSLYSLGGVRSLNVASGSWKS,2.36
25,FGSRSLYSLGGVRSLNVASGSMKS,1.93
26,FGSRSLYSLGGVRSLNVASGSSKS,1.93

row,Variant,protein stability index
1,FGSRSLYSLGGVRSLNVASGSGMS,1.49
2,FGSRSLYSLGGVRSLNVASGSGES,2.03
3,FGSRSLYSLGGVRSLNYASGSGKS,2.07
4,FGSRSLYSLGGVRSLNQASGSGKS,1.97
5,FGSRSLYSLGGVRSLNNASGSGKS,1.83
6,FGSRSLYSLGGVRSLNLASGSGKS,2.5
7,FGSRSLPSLGGVRSLNVASGSGKS,3.75
8,FGSRSLGSLGGVRSLNVASGSGKS,2.81
9,FGSRSLKSLGGVRSLNVASGSGKS,3.02
10,LGSRSLYSLGGVRSLNVASGSGKS,3.43
11,DGSRSLYSLGGVRSLNVASGSGKS,4.03
12,RGSRSLYSLGGVRSLNVASGSGKS,3.55
13,FGSRSLYSLGGVRSLNVASASGKS,1.96
14,FGSRSLYSLGGVRSLNVASMSGKS,1.49
15,FGSRSLYSLGGVRSLNVASNSGKS,1.82
16,FGSRSLYSLGGVRSLNVASHSGKS,1.67
17,FGSRSLYSLGGVRSLNVASISGKS,1.72
18,FGSRSLYSLGGVRSLNVYSGSGKS,2.94
19,FGSRSLYSLGGVRSLNVDSGSGKS,1.62
20,FGSRSLYSLGGLRSLNVASGSGKS,2.21
21,FGSRSLYSLGGWRSLNVASGSGKS,1.71
22,FGSRSLYSLGGTRSLNVASGSGKS,2.27
23,FGSRSLYSLGGFRSLNVASGSGKS,1.66
24,FGSRSLYSLGGMRSLNVASGSGKS,1.68
25,FGSRSLYSLGGVRSINVASGSGKS,1.7
26,FGSRSLYSLGGVRSPNVASGSGKS,2.02

row,Variant,protein stability index
1,FGSRSLYSLGGVRSTNVASGSGKS,1.92
2,FGSRSLYNLGGVRSLNVASGSGKS,2.4
3,FGSRSLYWLGGVRSLNVASGSGKS,2.62
4,FGSRSLYKLGGVRSLNVASGSGKS,2.14
5,FGSRSLYRLGGVRSLNVASGSGKS,1.69
6,FGSRSLYDLGGVRSLNVASGSGKS,3.44
7,FGSRSLYSLGGVRSLNVAKGSGKS,2.23
8,FGSRSLYSLGGVRSLNVARGSGKS,1.92
9,FGSRSLYSLGGVRSLNVACGSGKS,1.47
10,FGSRSLYSLGGVRSLNVALGSGKS,1.47
11,FGSRSLYSLGGVRSLNVAYGSGKS,1.89
12,FGSRSLYSLGGVRSLNVAEGSGKS,1.98
13,FGSRSNYSLGGVRSLNVASGSGKS,2.76
14,FGSRSWYSLGGVRSLNVASGSGKS,2.94
15,FGSRSAYSLGGVRSLNVASGSGKS,1.67
16,FGSRSCYSLGGVRSLNVASGSGKS,2.04
17,FGSRSLYSLGGVRSLNVASGEGKS,1.92
18,FGSRSLYSLGGVRSLNVASGNGKS,1.69
19,FGSRSLYSLGGVRSLNVASGWGKS,1.24
20,FGVRSLYSLGGVRSLNVASGSGKS,2.23
21,FGQRSLYSLGGVRSLNVASGSGKS,2.09
22,FGSDSLYSLGGVRSLNVASGSGKS,2.44
23,FGSWSLYSLGGVRSLNVASGSGKS,1.62
24,FGSVSLYSLGGVRSLNVASGSGKS,1.52
25,FGSRSLYSLDGVRSLNVASGSGKS,2.51

# Variants of: B2
# Assay: as above
# Settings: c terminus: a fixed tail appended
row,Variant,protein stability index
1,EPLPVERDPAAGAAPFRFVARPAR,2.58
2,EPLPVERDPAAGAAPFRFVARPCR,3.19
3,EPLPVERDPAAGAAPFRFVARPQR,2.95
4,EPLPVERDPAAGAAPFRFVARPLR,2.73
5,EPLPVERDPAAGAAPFRFVARPTR,2.17
6,EPLPVERDPAAGAAPFRFVARPSR,2.41
7,EPLPVERDPAAGAAPFRFVARPFR,2.48
8,EPLPVERDPAAGAAPFRFVARPDR,2.4
9,EPLPVERDPAAGAAPFRFVARPRR,2.8
10,EPLPVERDPAAGAAPFRFVARPYR,2.07
11,EPLPVERDPAAGAAPFRFVARPER,2.4
12,EPLPVERDPAAGAAPFRFVARPMR,2.4
13,EPLPVERDPAAGAAPFRFVARPNR,2.13
14,EPLPVERDPAAGAAPFRFVARPHR,2.69
15,EPLPVERDPAAGAAPFRFVARPWR,2.28
16,EPLPVERDPAAGAAPFRFVARPGR,2.25
17,EPLPVERDPAAGAAPFRFVARPIR,3
18,EPLPVERDPAAGAAPFRFVARPPR,2.83
19,EPLPVERDPAAGAAPFRFVARPKR,2.01
20,EPLPVERDPAAGAAPFRFVARPVC,2.22
21,EPLPVERDPAAGAAPFRFVARPVN,2.18
22,EPLPVERDPAAGAAPFRFVARPVE,2.15
23,EPLPVERDPAAGAAPFRFVARPVK,2.04

row,Variant,protein stability index
1,EPLPVERDPAAGAAPFRFVARPVL,1.62
2,EPLPVERDPAAGAAPFRFVARPVW,1.64
3,EPLPVERDPAAGAAPFRFVARPVD,2.17
4,EPLPVERDPAAGAAPFRFVARPVY,1.78
5,EPLPVERDPAAGAAPFRFVARPVQ,1.77
6,EPLPVERDPAAGAAPFRFVARPVG,1.89
7,EPLPVERDPAAGAAPFRFVARPVP,2.75
8,EPLPVERDPAAGAAPFRFVARPVH,2.02
9,EPLPVERDPAAGAAPFRFVARPVV,1.7
10,EPLPVERDPAAGAAPFRFVARPVT,1.97
11,EPLPVERDPAAGAAPFRFVARPVF,2.04
12,EPLPVERDPAAGAAPFRFVARPVS,1.81
13,EPLPVERDPAAGAAPFRFVARPVA,2.2
14,EPLPVERDPAAGAAPFRFVARPVM,2.37
15,EPLPVERDPAAGAAPFRFVARPVI,2.33
16,EPLPVERDPAAGAAPFRFVAHPVR,2.18
17,EPLPVERDPAAGAAPFRFVAFPVR,2.51
18,EPLPVERDPAAGAAPFRFVAEPVR,2.35
19,EPLPVERDPAAGAAPFRFVAMPVR,1.95
20,EPLPVERDPAAGAAPFRFVAQPVR,2.96
21,EPLPVERDPAAGAAPFRFVATPVR,2.57
22,EPLPVERDPAAGAAPFRFVAWPVR,1.41
23,EPLPVERDPAAGAAPFRFVAAPVR,2.46

row,Variant,protein stability index
1,EPLPVERDPAAGAAPFRFVAVPVR,1.8
2,EPLPVERDPAAGAAPFRFVASPVR,2.14
3,EPLPVERDPAAGAAPFRFVAYPVR,1.76
4,EPLPVERDPAAGAAPFRFVAPPVR,3.54
5,EPLPVERDPAAGAAPFRFVACPVR,1.7
6,EPLPVERDPAAGAAPFRFVADPVR,2.27
7,EPLPVERDPAAGAAPFRFVANPVR,1.59
8,EPLPVERDPAAGAAPFRFVAIPVR,2.58
9,EPLPVERDPAAGAAPFRFVAKPVR,2.71
10,EPLPVERDPAAGAAPFRFVAGPVR,2.03
11,EPLPVERDPAAGAAPFRFVALPVR,2.07
12,EPLPVERDPAAGAAPFRFVARTVR,1.92
13,EPLPVERDPAAGAAPFRFVARNVR,2.31
14,EPLPVERDPAAGAAPFRFVARAVR,2.64
15,EPLPVERDPAAGAAPFRFVARDVR,2.77
16,EPLPVERDPAAGAAPFRFVARRVR,2.8
17,EPLPVERDPAAGAAPFRFVARVVR,2.6
18,EPLPVERDPAAGAAPFRFVARIVR,3.15
19,EPLPVERDPAAGAAPFRFVARKVR,2.22
20,EPLPVERDPAAGAAPFRFVARWVR,2.66
21,EPLPVERDPAAGAAPFRFVARMVR,2.48
22,EPLPVERDPAAGAAPFRFVARFVR,3.22
23,EPLPVERDPAAGAAPFRFVARHVR,1.93

row,Variant,protein stability index
1,EPLPVERDPAAGAAPFRFVARQVR,2.02
2,EPLPVERDPAAGAAPFRFVAREVR,2.62
3,EPLPVERDPAAGAAPFRFVARGVR,1.85
4,EPLPVERDPAAGAAPFRFVARYVR,2.32
5,EPLPVERDPAAGAAPFRFVARCVR,2.17
6,EPLPVERDPAAGAAPFRFVARSVR,2.51
7,EPLPVERDPAAGAAPFRFVARLVR,2.33
8,EPLPVERDPAAGAAPFRFKARPVR,4.83
9,EPLPVERDPAAGAAPFRFMARPVR,4.1
10,EPLPVERDPAAGAAPFRFFARPVR,3.88
11,EPLPVERDPAAGAAPFRFEARPVR,4.57
12,EPLPVERDPAAGAAPFRFTARPVR,3.97
13,EPLPVERDPAAGAAPFRFRARPVR,4.22
14,EPLPVERDPAAGAAPFRFQARPVR,2.99
15,EPLPVERDPAAGAAPFRFWARPVR,3.65
16,EPLPVERDPAAGAAPFRFIARPVR,2.89
17,EPLPVERDPAAGAAPFRFYARPVR,4.31
18,EPLPVERDPAAGAAPFRFNARPVR,4.36
19,EPLPVERDPAAGAAPFRFPARPVR,5.1
20,EPLPVERDPAAGAAPFRFSARPVR,4.62
21,EPLPVERDPAAGAAPFRFLARPVR,3.97
22,EPLPVERDPAAGAAPFRFGARPVR,5.14
23,EPLPVERDPAAGAAPFRFHARPVR,1.62

row,Variant,protein stability index
1,EPLPVERDPAAGAAPFRFVSRPVR,2.05
2,EPLPVERDPAAGAAPFRFVLRPVR,3.35
3,EPLPVERDPAAGAAPFRFVMRPVR,2.49
4,EPLPVERDPAAGAAPFRFVWRPVR,2.56
5,EPLPVERDPAAGAAPFRFVERPVR,3.03
6,EPLPVERDPAAGAAPFRFVIRPVR,3.21
7,EPLPVERDPAAGAAPFRFVPRPVR,2.2
8,EPLPVERDPAAGAAPFRFVQRPVR,2.4
9,EPLPVERDPAAGAAPFRFVNRPVR,2.61
10,EPLPVERDPAAGAAPFRFVGRPVR,2.04
11,EPLPVERDPAAGAAPFRFVYRPVR,4.17
12,EPLPVERDPAAGAAPFRFVDRPVR,2.46
13,EPLPVERDPAAGAAPFRFVCRPVR,1.61
14,EPLPVERDPAAGAAPFRFVKRPVR,1.97
15,EPLPVERDPAAGAAPFRFVTRPVR,2.8
16,EPLPVERDPAAGAAPFRFVVRPVR,2.46
17,EPLPVERDPAAGAAPFRFVHRPVR,2.81
18,EPLPVERDPAAGAAPFRFVRRPVR,1.67
19,EPLPVERDPAAGAAPFRFVFRPVR,3.42
